Experiment: soluble on expression in E. coli; label from the status in PepcDB or PDB records

Soluble on expression in E. coli, soluble:
MSLKALIIMDMTNDFVFEKYEHEGKEYEGRLVAPLGKTIVEPIEALVKKVVNSGTVSLFRISKDHYDAFTNPELELKVAELGIDEVFMTGLVDEVCIYHNTLGFLERGFRTNVVRGCTAPFDPEKGRESLGELDACGTKMVDDIPSDIGVILLLEDEHDENSEEIKSGSWPPHSMKGTPGALTIKPIREALESREGHHHHHH, PEGPEIRRAADNLEAAIKGKPLTDVWFAFPQLKTYQSQLIGQHVTHVETRGKALLTHFSNDLTLYSHNQLYGVWRVVDTGEEPQTTRVLRVKLQTADKTILLYSASDIEMLRPEQLTTHPFLQRVGPDVLDPNLTPEVVKERLLSPRFRNRQFAGLLLDQAFLAGLGNYLRVEILWQVGLTGNHKAKDLNAAQLDALAHALLEIPRFSYATRGQVDENKHHGALFRFKVFHRDGEPCERCGSIIEKTTLSSRPFYWCPGCQH

Soluble on expression in E. coli, not soluble:
MGSDKIHHHHHHMNQIINDNYREFLKKLRERHLKKRKVKDKNKPIAVWMQDDIYRDFSIGKSLTIILRTEGCYYAKEGGCLMCSYLMDSSPEKITAENIINQFNYAIEKYKEKIKDLKDFSVKIFTSGSFLDDREVPKEARNYIFKKLSEFDNLKEVAIESRPEFIDEDKLNEIRKYLDVNVEIGVGIESFNEEIREKAINKGITNEQIIRAIELAKNYNIGIKAYLLIKPLFITEKEAIYDSISSANKCIELGCSRISFCPATVHKGSVMEFFFNKNQYRPPFLWSIIEILKEVKKSNPKALIMCDTSGVGSERGAHNLYNCKCNKLIKERLERFTLTQDINVLNVECECKNIWNAYIEVENKNIVPLGDERKLLL, KGSTFIKAQDKYEVNILYLISHALVETGNGQSDLSKGIKEGDHHYYNFFGIGAFDEDAVKTGKSFAKQKKWTTPEKAIMGGAWFVRYHYFKNNQLSLYQMRWNPQNPGQHQYASDIQWANNIADLMEKYYDKYGIKKDHIRKKYYK, MGSDKIHHHHHHMIDIKNTLLLGHRGARGEALENTLSGFEYAQNLQLSGLAGVEFDVQLSRDGQLVVFHDDTLERMCAQQSRLDQLNVSEIQRHRQFGQPIITLLDIASALNTYTYIELEVKTHSRTDYAKLVKALMHDLIDSSLASLPIVLTSFDVALHARLQRSTLLRHIPRGLLIREPELLKQAPNTALQLGCGQLGIHYPLLNHKVIQCCHQYDLPVSAWTVNDIETIKQLIDWQVDVIITDYPSYLLLP, MSLSDTEKKIADTKGQFLQAVSQGQRLTDAEWRNCRIVLTTERVALLGDDKRQISLTDIDRIADRFDVNQQSAGVSDYVALYVGEDVILVSASDHGTFETDFYRASLDGAIVLVQHPALKGGVVQSAEWTKGRLKVTDEALKLAMADGQAVVIDRADIGDLAVEEKQVSGEERTVIQVEHSEEDISVETHLAGEEFHATVLRTMLEESAEQNQADLDLSSTEKRVIMALHSGVSPFDIPNFVGIDVEKTEEIFDRLIELDVISVLRERTEVNLTTKGRRVAGERMGEQEGHHHHHH, MGSDKIHHHHHHMRIAQIAPLHEAVPPKLYGGTERVVSYLTEALVEMGHDVTLFASGDSQTSAKLEAVWPQALRLDPTIRDVMAPHMLLLEEVRRRADEFDVLHFHIDYYPFPLFSRQPVPHLTTLHGRLDLPELQPIFNTFSDVPVVSISDNQRIPLSQANWLQTTYHGLPENLLKPIPDVKPSYLAFLGRISPEKRVDTAIRIAEQAGMPIKIAAKLDKADRAYYEEKIKPLFSLPHVEYIGEISEAEKAEFLGNAHALLFPIDWPEPFGLVMIEAMACGTPVIAFKRGSVPEVIENGVSGFVVEDELSAVAAVKRLNTLPRERVRAAFDARFTSKVMARNYVKGYEELLRQKRRTVLREVNAG, MGLFTTRQLLGYTEQKVKFRALFLELFFRRTVNFHTEEVMLDKITGKTPVAAYVSPVVEGKVLRHRGGETRVLRPGYVKPKHEFNYQQAVERLPGEDPAQLNGPAYRRLRIITDNLKQEEHAIVQVEEMQAVNAVLYGKYTMEGEQFETVEVDFGRSVGNNITQAGGTEWSAQDRDTFDPTHDLDAYCDFASGTINIAIMDGKVWRLLNGFKLFREKLDTRRGSNSQLETAVKDLGAVVSFKGYYGDLAIVVAKTSYVAEDGTEKRYLPDGTLVLGNTAAEGIRCYGAIQDAQALSEGVVASSRYPKHWLTVGDPAREFTMTQSAPLMVLPDPDEFVVVQVK
